# Source: US20240261333A1, “NOVEL TARGETS FOR ENHANCING ANTI-TUMOR IMMUNITY” (THE BROAD INSTITUTE, INC., priority 2021, published 2024)
# T1: B3GNT2 (Homo sapiens, UniProt Q9NY97)
# T1 construct: The respective ORFs of candidate genes [CD274 (NM_014143), MCL1 (NM_021960), JUNB (NM_002229), and B3GNT2 (NM_006577)] were synthesized; expressed in transfected cells; host or cells: A375 melanoma cells (lentiviral ORF overexpression)
# T1 sequence (Q9NY97 1-397): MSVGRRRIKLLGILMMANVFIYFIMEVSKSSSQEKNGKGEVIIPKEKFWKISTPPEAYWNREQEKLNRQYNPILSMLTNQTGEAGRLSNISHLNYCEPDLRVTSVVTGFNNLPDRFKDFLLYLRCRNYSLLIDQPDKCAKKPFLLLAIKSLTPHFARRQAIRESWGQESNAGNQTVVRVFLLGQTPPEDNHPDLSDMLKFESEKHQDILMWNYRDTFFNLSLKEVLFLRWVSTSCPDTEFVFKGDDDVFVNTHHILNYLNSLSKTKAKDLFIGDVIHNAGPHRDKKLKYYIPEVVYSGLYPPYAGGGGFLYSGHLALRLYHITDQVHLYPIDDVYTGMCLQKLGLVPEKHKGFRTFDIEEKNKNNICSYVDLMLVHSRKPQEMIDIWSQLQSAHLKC
# B1: SRP14 (protein)
# chain: VLLESEQFLTELTRLFQKCRTSGSVYITLKKYDGRTKPIPKKGTVEGFEPADNKCLLRATDGKKKISTVVSSKEVNKFQMAYSNLLRANMDGLKKRDKKNKTKKTKAAAAAAAAAPAAAATAPTTAATTAATAAQ
# B2: CPSF6 (protein)
# chain: MADGVDHIDIYADVGEEFNQEAEYGGHDQIDLYDDVISPSANNGDAPEDRDYMDTLPPTVGDDVGKGAAPNVVYTYTGKRIALYIGNLTWWTTDEDLTEAVHSLGVNDILEIKFFENRANGQSKGFALVGVGSEASSKKLMDLLPKRELHGQNPVVTPCNKQFLSQFEMQSRKTTQSGQMSGEGKAGPPGGSSRAAFPQGGRGRGRFPGAVPGGDRFPGPAGPGGPPPPFPGNLIKHLVKGTRPLFLETRIPWHMGHSIEEIPIFGLKAGQTPPRPPLGPPGPPGPPGPPPPGQVLPPPLAGPPNRGDRPPPPVLFPGQPFGQPPLGPLPPGPPPPVPGYGPPPGPPPPQQGPPPPPGPFPPRPPGPLGPPLTLAPPPHLPGPPPGAPPPAPHVNPAFFPPPTNSGMPTSDSRGPPPTDPYGRPPPYDRGDYGPPGREMDTARTPLSEAEFEEIMNRNRAISSSAISRAVSDASAGDYGSAIETLVTAISLIKQSKVSADDRCKVLISSLQDCLHGIESKSYGSGSRRERSRERDHSRSREKSRRHKSRSRDRHDDYYRERSRERERHRDRDRDRDRERDREREYRHR
# B3: TIMP3 (protein)
# chain: CTCSPSHPQDAFCNSDIVIRAKVVGKKLVKEGPFGTLVYTIKQMKMYRGFTKMPHVQYIHTEASESLCGLKLEVNKYQYLLTGRVYDGKMYTGLCNFVERWDQLTLSQRKGLNYRYHLGCNCKIKSCYYLPCFVTSKNECLWTDMLSNFGYPGYQSKHYACIRQKGGYCSWYRGWAPPDKSIINATDP
# B4: SERBP1 (protein)
# chain: PGHLQEGFGCVVTNRFDQLFDDESDPFEVLKAAENKKKEAGGGGVGGPGAKSAAQAAAQTNSNAAGKQLRKESQKDRKNPLPPSVGVVDKKEETQPPVALKKEGIRRVGRRPDQQLQGEGKIIDRRPERRPPRERRFEKPLEEKGEGGEFSVDRPIIDRPIRGRGGLGRGRGGRGRGMGRGDGFDSRGKREFDRHSGSDRSSFSHYSGLKHEDKRGGSGSHNWGTVKDELTESPKYIQKQISYNYSDLDQSNVTEETPEGEEHHPVADTENKENEVEEVKEEGPKEMTLDEWKAIQNKDRAKVEFNIRKPNEGADGQWKKGFVLHKSKSEEAHAEDSVMDHHFRKPANDITSQLEINFGDLGRPGRGGRGGRGGRGRGGRPNRGSRTDKSSASAPDVDDPEAFPALA
# B5: CALR (protein)
# chain: EPAVYFKEQFLDGDGWTSRWIESKHKSDFGKFVLSSGKFYGDEEKDKGLQTSQDARFYALSASFEPFSNKGQTLVVQFTVKHEQNIDCGGGYVKLFPNSLDQTDMHGDSEYNIMFGPDICGPGTKKVHVIFNYKGKNVLINKDIRCKDDEFTHLYTLIVRPDNTYEVKIDNSQVESGSLEDDWDFLPPKKIKDPDASKPEDWDERAKIDDPTDSKPEDWDKPEHIPDPDAKKPEDWDEEMDGEWEPPVIQNPEYKGEWKPRQIDNPDYKGTWIHPEIDNPEYSPDPSIYAYDNFGVLGLDLWQVKSGTIFDNFLITNDEAYAEEFGNETWGVTKAAEKQMKDKQDEEQRLKEEEEDKKRKEEEEAEDKEDDEDKDEDEEDEEDKEEDEEEDVPGQAKDEL
# B6: FAM3A (protein)
# chain: FPRIQQLFTSPESSVTAAPRARKYKCGLPQPCPEEHLAFRVVSGAANVIGPKICLEDKMLMSSVKDNVGRGLNIALVNGVSGELIEARAFDMWAGDVNDLLKFIRPLHEGTLVFVASYDDPATKMNEETRKLFSELGSRNAKELAFRDSWVFVGAKGVQNKSPFEQHVKNSKHSNKYEGWPEALEMEGCIPRRSTAS
# B7: CHCHD6 (protein)
# chain: GSTESSEGRRVSFGVDEEERVRVLQGVRLSENVVNRMKEPSSPPPAPTSSTFGLQDGNLRAPHKESTLPRSGSSGGQQPSGMKEGVKRYEQEHAAIQDKLFQVAKREREAATKHSKASLPTGEGSISHEEQKSVRLARELESREAELRRRDTFYKEQLERIERKNAEMYKLSSEQFHEAASKMESTIKPRRVEPVCSGLQAQILHCYRDRPHEVLLCSDLVKAYQRCVSAAHKG
# B8: SLC25A13 (protein)
# chain: AAAKVALTKRADPAELRTIFLKYASIEKNGEFFMSPNDFVTRYLNIFGESQPNPKTVELLSGVVDQTKDGLISFQEFVAFESVLCAPDALFMVAFQLFDKAGKGEVTFEDVKQVFGQTTIHQHIPFNWDSEFVQLHFGKERKRHLTYAEFTQFLLEIQLEHAKQAFVQRDNARTGRVTAIDFRDIMVTIRPHVLTPFVEECLVAAAGGTTSHQVSFSYFNGFNSLLNNMELIRKIYSTLAGTRKDVEVTKEEFVLAAQKFGQVTPMEVDILFQLADLYEPRGRMTLADIERIAPLEEGTLPFNLAEAQRQQKASGDSARPVLLQVAESAYRFGLGSVAGAVGATAVYPIDLVKTRMQNQRSTGSFVGELMYKNSFDCFKKVLRYEGFFGLYRGLLPQLLGVAPEKAIKLTVNDFVRDKFMHKDGSVPLAAEILAGGCAGGSQVIFTNPLEIVKIRLQVAGEITTGPRVSALSVVRDLGFFGIYKGAKACFLRDIPFSAIYFPCYAHVKASFANEDGQVSPGSLLLAGAIAGMPAASLVTPADVIKTRLQVAARAGQTTYSGVIDCFRKILREEGPKALWKGAGARVFRSSPQFGVTLLTYELLQRWFYIDFGGVKPMGSEPVPKSRINLPAPNPDHVGGYKLAVATFAGIENKFGLYLPLFKPSVSTSKAIGGGP
# B9: HYOU1 (protein)
# chain: LAVMSVDLGSESMKVAIVKPGVPMEIVLNKESRRKTPVIVTLKENERFFGDSAASMAIKNPKATLRYFQHLLGKQADNPHVALYQARFPEHELTFDPQRQTVHFQISSQLQFSPEEVLGMVLNYSRSLAEDFAEQPIKDAVITVPVFFNQAERRAVLQAARMAGLKVLQLINDNTATALSYGVFRRKDINTTAQNIMFYDMGSGSTVCTIVTYQMVKTKEAGMQPQLQIRGVGFDRTLGGLEMELRLRERLAGLFNEQRKGQRAKDVRENPRAMAKLLREANRLKTVLSANADHMAQIEGLMDDVDFKAKVTRVEFEELCADLFERVPGPVQQALQSAEMSLDEIEQVILVGGATRVPRVQEVLLKAVGKEELGKNINADEAAAMGAVYQAAALSKAFKVKPFVVRDAVVYPILVEFTREVEEEPGIHSLKHNKRVLFSRMGPYPQRKVITFNRYSHDFNFHINYGDLGFLGPEDLRVFGSQNLTTVKLKGVGDSFKKYPDYESKGIKAHFNLDESGVLSLDRVESVFETLVEDSAEEESTLTKLGNTISSLFGGGTTPDAKENGTDTVQEEEESPAEGSKDEPGEQVELKEEAEAPVEDGSQPPPPEPKGDATPEGEKATEKENGDKSEAQKPSEKAEAGPEGVAPAPEGEKKQKPARKRRMVEEIGVELVVLDLPDLPEDKLAQSVQKLQDLTLRDLEKQEREKAANSLEAFIFETQDKLYQPEYQEVSTEEQREEISGKLSAASTWLEDEGVGATTVMLKEKLAELRKLCQGLFFRVEERKKWPERLSALDNLLNHSSMFLKGARLIPEMDQIFTEVEMTTLEKVINETWAWKNATLAEQAKLPATEKPVLLSKDIEAKMMALDREVQYLLNKAKFTKPRPRPKDKNGTRAEPPLNASASDQGEKVIPPAGQTEDAEPISEPEKVETGSEPGDTEPLELGGPGAEPEQKEQSTGQKRPLKNDEL
# B10: FAM3C (protein)
# chain: QVFEIKMDASLGNLFARSALDTAARSTKPPRYKCGISKACPEKHFAFKMASGAANVVGPKICLEDNVLMSGVKNNVGRGINVALANGKTGEVLDTKYFDMWGGDVAPFIEFLKAIQDGTIVLMGTYDDGATKLNDEARRLIADLGSTSITNLGFRDNWVFCGGKGIKTKSPFEQHIKNNKDTNKYEGWPEVVEMEGCIPQKQD
# B11: MYL9 (protein)
# chain: SSKRAKAKTTKKRPQRATSNVFAMFDQSQIQEFKEAFNMIDQNRDGFIDKEDLHDMLASLGKNPTDEYLEGMMSEAPGPINFTMFLTMFGEKLNGTDPEDVIRNAFACFDEEASGFIHEDHLRELLTTMGDRFTDEEVDEMYREAPIDKKGNFNYVEFTRILKHGAKDKDD
# Target: T1, B3GNT2
# Experiment: Co-IP of FLAG-tagged B3GNT2 followed by mass spectrometry
# Format: cell-based
# Set-up: C-term IgG / C-term flag: unit not given here
# Settings: Co-IP followed by mass spectrometry of B3GNT2; C-term tag, FLAG pull-down
# Outline: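 FLAG-tagged B3GNT2 immunoprecipitated from cell lysate (HEPES, 1% Triton X-100, 150 mM NaCl) with anti-FLAG versus […], overnight at 4° C, then captured on Protein A/G magnetic beads for 4 h. Two biological replicates per condition. Peptides fractionated and analyzed by nano-LC on an Orbitrap Elite in data-dependent mode.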
row,Molecule,C-term flag
1,B1,3
2,B2,35
3,B3,3
4,B4,10

# Same assay, conditions: Co-IP followed by mass spectrometry of B3GNT2; C-term tag, IgG pull-down
row,Molecule,C-term IgG
1,B1,0
2,B2,33
3,B3,0
4,B4,5

# Same assay, conditions: Co-IP followed by mass spectrometry of B3GNT2; N-term tag, FLAG pull-down
row,Molecule,N-term FLAG
1,B1,0
2,B2,30
3,B3,0
4,B4,0

# Same assay, conditions: Co-IP followed by mass spectrometry of B3GNT2; N-term tag, IgG pull-down
row,Molecule,N-term IgG
1,B1,0
2,B2,28
3,B3,0
4,B4,4

# Same assay, conditions: Co-IP with FLAG antibody, C-terminally FLAG-tagged B3GNT2; mass spectrometry count, unit not given
row,Molecule,C-term flag
1,B5,20
2,B6,18
3,B7,3
4,B8,0
5,B9,27
6,B10,23
7,B11,0

# Same assay, conditions: Co-IP with FLAG antibody, N-terminally FLAG-tagged B3GNT2; mass spectrometry count, unit not given
row,Molecule,N-term FLAG
1,B5,6
2,B6,9
3,B7,0
4,B8,3
5,B9,0
6,B10,2
7,B11,3

# Same assay, conditions: Co-IP with IgG control antibody, C-terminally FLAG-tagged B3GNT2; mass spectrometry count, unit not given
row,Molecule,C-term IgG
1,B5,0
2,B6,0
3,B7,0
4,B8,0
5,B9,0
6,B10,0
7,B11,0

# Same assay, conditions: Co-IP with IgG control antibody, N-terminally FLAG-tagged B3GNT2; mass spectrometry count, unit not given
row,Molecule,N-term IgG
1,B5,0
2,B6,0
3,B7,0
4,B8,0
5,B9,0
6,B10,0
7,B11,0
